The experiment concerns the target Rho-kinase (ROCK), endogenous in Swiss 3T3 mouse fibroblasts (mouse). In words: cell-based or functional assay.

B1: P1-RhoA 75-92 fusion domain (Penetratin-1 fused through a glycine to human RhoA amino acids 75-92) (peptide)
peptide: RQIKIWFQNRRMKWKKGPDTDVILMCFSIDSPDSL
On to B1, for which the “dose at which inhibition of LPA-induced stress fibers becomes significant” value worked out at 10 µM.

B2: P1-RhoA 23-40 fusion domain (Penetratin-1 fused through a glycine to human RhoA amino acids 23-40) (peptide)
peptide: RQIKIWFQNRRMKWKKGIVFSKDQFPEVYVPTVFE
B2: the “dose at which inhibition of LPA-induced stress fibers becomes significant” value is 10 µM.

Source of the values: US20050209147A1 (Stanford University, published 2005).
